# Test results published in patent publication US20220332804A1 (CSL INNOVATION, published 2022).
# T1: human C2 N403A (human, UniProt P06681 21-752)
# T1 sequence: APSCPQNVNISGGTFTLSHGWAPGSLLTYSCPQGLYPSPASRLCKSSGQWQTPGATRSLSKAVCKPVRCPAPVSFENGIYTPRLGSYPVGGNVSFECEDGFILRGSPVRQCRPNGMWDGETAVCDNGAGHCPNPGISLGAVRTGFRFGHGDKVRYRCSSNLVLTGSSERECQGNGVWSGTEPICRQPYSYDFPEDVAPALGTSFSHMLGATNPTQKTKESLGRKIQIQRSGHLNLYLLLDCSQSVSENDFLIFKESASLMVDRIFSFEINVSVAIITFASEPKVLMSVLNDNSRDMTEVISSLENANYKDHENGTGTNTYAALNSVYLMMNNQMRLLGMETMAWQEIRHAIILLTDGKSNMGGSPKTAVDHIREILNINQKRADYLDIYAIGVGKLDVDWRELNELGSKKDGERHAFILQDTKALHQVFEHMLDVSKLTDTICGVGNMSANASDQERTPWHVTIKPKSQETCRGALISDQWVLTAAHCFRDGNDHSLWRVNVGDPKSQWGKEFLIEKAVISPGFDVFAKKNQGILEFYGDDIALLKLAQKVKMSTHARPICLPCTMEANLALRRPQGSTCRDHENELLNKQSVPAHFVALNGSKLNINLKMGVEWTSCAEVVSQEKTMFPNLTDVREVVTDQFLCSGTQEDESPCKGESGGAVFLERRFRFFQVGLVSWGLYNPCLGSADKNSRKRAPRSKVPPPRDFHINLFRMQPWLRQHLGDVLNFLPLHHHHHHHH
# T2: human C2 L271A (human, UniProt P06681 21-752)
# T2 sequence: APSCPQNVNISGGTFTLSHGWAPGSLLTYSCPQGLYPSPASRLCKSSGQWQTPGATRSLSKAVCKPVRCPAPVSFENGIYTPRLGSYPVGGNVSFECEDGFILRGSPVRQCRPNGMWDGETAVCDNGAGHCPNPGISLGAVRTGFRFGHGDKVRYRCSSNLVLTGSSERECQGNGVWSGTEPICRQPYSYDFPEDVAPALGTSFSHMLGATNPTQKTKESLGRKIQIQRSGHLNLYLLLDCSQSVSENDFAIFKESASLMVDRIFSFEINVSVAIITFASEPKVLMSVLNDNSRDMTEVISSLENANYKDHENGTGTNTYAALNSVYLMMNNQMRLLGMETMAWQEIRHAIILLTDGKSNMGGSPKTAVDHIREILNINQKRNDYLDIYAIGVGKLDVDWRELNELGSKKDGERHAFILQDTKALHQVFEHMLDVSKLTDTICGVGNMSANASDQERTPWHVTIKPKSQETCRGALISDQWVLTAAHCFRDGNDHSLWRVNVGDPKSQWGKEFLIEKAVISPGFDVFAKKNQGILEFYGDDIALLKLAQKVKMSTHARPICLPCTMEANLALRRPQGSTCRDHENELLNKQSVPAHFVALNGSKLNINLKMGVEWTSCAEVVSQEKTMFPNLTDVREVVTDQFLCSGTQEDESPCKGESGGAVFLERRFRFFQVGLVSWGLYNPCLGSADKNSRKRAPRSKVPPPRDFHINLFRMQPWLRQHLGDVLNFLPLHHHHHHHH
# T3: human C2 G677A (human, UniProt P06681 21-752)
# T3 sequence: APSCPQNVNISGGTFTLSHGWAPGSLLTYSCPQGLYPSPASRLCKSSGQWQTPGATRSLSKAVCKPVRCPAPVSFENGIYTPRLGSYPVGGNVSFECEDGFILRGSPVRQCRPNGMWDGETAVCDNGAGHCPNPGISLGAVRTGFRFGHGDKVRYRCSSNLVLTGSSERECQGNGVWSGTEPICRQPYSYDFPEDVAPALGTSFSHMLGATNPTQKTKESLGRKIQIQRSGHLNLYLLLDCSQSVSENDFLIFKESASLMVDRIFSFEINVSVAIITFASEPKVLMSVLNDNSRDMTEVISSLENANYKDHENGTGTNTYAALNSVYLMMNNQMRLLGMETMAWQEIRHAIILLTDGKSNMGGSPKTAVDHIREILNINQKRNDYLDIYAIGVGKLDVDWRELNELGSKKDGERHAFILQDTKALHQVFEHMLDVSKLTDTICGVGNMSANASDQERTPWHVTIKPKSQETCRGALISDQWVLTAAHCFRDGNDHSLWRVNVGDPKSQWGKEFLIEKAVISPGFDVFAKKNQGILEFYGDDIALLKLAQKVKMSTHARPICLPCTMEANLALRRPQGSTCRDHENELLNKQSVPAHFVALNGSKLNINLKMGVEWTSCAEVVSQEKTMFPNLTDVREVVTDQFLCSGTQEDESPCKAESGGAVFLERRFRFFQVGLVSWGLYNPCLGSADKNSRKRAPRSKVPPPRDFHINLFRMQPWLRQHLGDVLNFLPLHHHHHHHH
# T4: human C2 R688A (human, UniProt P06681 21-752)
# T4 sequence: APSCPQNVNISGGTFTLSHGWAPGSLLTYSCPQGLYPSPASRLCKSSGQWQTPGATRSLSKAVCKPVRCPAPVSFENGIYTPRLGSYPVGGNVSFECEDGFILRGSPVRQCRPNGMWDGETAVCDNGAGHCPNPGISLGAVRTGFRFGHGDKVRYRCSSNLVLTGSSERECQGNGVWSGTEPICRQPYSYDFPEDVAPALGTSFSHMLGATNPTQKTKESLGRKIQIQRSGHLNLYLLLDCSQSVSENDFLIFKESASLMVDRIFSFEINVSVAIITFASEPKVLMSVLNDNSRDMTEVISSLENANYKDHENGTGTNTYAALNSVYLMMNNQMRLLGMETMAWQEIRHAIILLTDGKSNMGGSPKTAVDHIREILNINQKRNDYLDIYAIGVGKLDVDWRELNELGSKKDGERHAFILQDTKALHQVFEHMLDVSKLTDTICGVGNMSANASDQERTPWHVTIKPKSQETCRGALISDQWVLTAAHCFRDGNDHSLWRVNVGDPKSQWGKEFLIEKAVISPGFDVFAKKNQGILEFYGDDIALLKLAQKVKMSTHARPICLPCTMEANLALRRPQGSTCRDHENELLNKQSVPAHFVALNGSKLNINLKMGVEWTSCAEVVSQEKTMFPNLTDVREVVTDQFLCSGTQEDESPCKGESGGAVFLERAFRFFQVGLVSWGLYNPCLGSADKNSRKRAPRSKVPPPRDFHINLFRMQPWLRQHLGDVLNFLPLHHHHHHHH
# B1: RF16-242 (antibody, human IgG4 S228P, lambda, V domains shown)
# VH: EVQLLQSGAEVKKPGESLKISCKGSGYSFTSYWIGWVRQMPGKGLEWMGIIYPGDSDTRYSPSFQGQVTISADKSISTAYLQWSSLKASDTAMYYCARRGHYGDYFDYWGQGTLVTVSS
# VL: SYELTQPPSVSVSPGQTARITCSGDALPKKYAYWYHQKSGQAPVLVIYEDRRRPSEIPERFSGSSSGTMATLTITGAQVEDEGVYFCYSRDRAGNQRVFGGGTQLTVLG
# notes: pH-dependent anti-C2 antibody from a phage display library
# What was measured:
# Test in all cases: SPR, KD relative to WT C2;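 also: biacore SPR at 37 °C, anti-C2 mAbs captured on anti-human IgG chips with alanine or serine point mutants of C2 as analyte, KD from 1:1 fit compared with wild-type C2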
# human C2 N403A = target: T1, human C2 N403A
# Description: (§1) Surface plasmon resonance (SPR, Biacore) was used for all binding affinity analyses. In brief, goat anti-human IgG was directly immobilised onto the carboxymethyl dextran surface of CM5 sensorchips to approximately 12,000 RU using standard NHS/EDC chemistry at pH 5. The immobilised antibody surface was pre-conditioned with ten injections of polyclonal human IgG (Privigen 60 s) prepared at 1 μg/mL. Ligands (anti-C2 mAbs) were captured at the beginning of each cycle as described below. An adjacent spot or flow cell in which only Polyclonal IgG was capture was used as a reference surface. The goat anti-human IgG Fc antibody surface was regenerate in 100 mM H3PO4, injected for 45 seconds at the end of each cycle. Experiments were performed at 37° C. and the flow rate of each experiment was kept constant at 30 μL/min.
# (§2) Sensogram data was double-referenced against a reference anti-IgG surface (i.e. minus anti-C2 mAb) and blank buffer injections obtained within each experiment. The binding data was fit to 1:1 (kinetic or steady-state) model using local Rmax and null refraction index (RI=0) when appropriate. Buffers and solutions were filtered (0.22 μm) prior to use.
# human C2 L271A = target: T2, human C2 L271A
# Description: as §1, §2
# human C2 G677A = target: T3, human C2 G677A
# Description: as §1, §2
# human C2 R688A = target: T4, human C2 R688A
# Description: as §1, §2
binder,measurement,setting,value
B1,Fold diff,human C2 N403A,1 fold
same,Fold diff,human C2 L271A,1 fold
same,Fold diff,human C2 G677A,1 fold
same,Fold diff,human C2 R688A,2 fold
